Test system: PPO-deficient BT3 E. coli (ΔPPO)
Test: PPO-inhibiting herbicide tolerance test of PPO variants in E. coli (growth on herbicide-containing LB agar)
Format: cell-based
Settings: CyPPO19 variants in BT3 (ΔPPO) E. coli; LB agar with 0 to 2,000 μM herbicide, 37° C., dark, 16-20 hours
Method in brief: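 Tolerance was scored against wild-type enzyme: '−' for equal growth, one '+' per 10-fold gain, up to '+++++'. ΔPPO BT3 cells carrying variant plasmids, spotted as a 10-fold dilution series from OD600=0.5, grew 16-20 h at 37° C. in the dark on ampicillin LB agar containing 0 to 2,000 μM herbicide.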

Molecule | tolerance level relative to wild type, Carfentrazone | tolerance level relative to wild type, Flumioxazin | tolerance level relative to wild type, Fomesafen | tolerance level relative to wild type, Oxyfluorfen | tolerance level relative to wild type, Saflufenacil | tolerance level relative to wild type, Sulfentrazone | tolerance level relative to wild type, Tiafenacil
CyPPO19 V165C + L327T + F360V: variant of CyPPO19 PPO protein (SEQ ID NO: 1) (protein, Synthetic_PPO of Thermosynechococcus elongatus PKUAC-SCTE542 (comprising GenBank No. CP032152.1)) MSEVDVAIVGGGLSGLSLAWRLQQSAPQYSVVLLEASDRLGGNITTQTAEGFVWELGPNSFAPTPALLQLIAEVGLQSELIRGDRHLPRYIYWRGQLYPLQPTRPLALATSNLLSPWGKVRAALGALGFVPPYLGSGDESVNSFFRRHLGQEVAERLVAPFVSGCYAGDPQQLSAAAAFRRIAQLEKLGGGLIAGALHLRRQQAPKPKPPTSVQMRPGELGSFKEGLAALPRAIAQQLKAPIHLQTPVQEITPDPKGGYLLRSGEQTWRARSVVLATPAYQTAELVAPFQPAIARVLATIPYPTVACVVLAYPAGLGRSVRPGFGVTIPRSQGIRTLGTIWSSCLFPQRTPAGWQVFTSVIGGATDPDLASLSEEAIVQQVQQDLNRLLDLPAAKARLLGMKVWRRAIPQYMVGYPEQWQQVTHALSQTPGLFLCSNYAEGVALGDRVEHGNRTAAAVAAYLSGGQP | + (‘+’ per each 10-fold resistance) | +++++ (until ‘+++++’ as maximal resistance) | + (‘+’ per each 10-fold resistance) | +++ (‘+’ per each 10-fold resistance) | ++++ (‘+’ per each 10-fold resistance) | +++++ (until ‘+++++’ as maximal resistance) | +++++ (until ‘+++++’ as maximal resistance)
CyPPO19 V165C + I408W + F360T: variant of CyPPO19 PPO protein (SEQ ID NO: 1) (protein, Synthetic_PPO of Thermosynechococcus elongatus PKUAC-SCTE542 (comprising GenBank No. CP032152.1)) MSEVDVAIVGGGLSGLSLAWRLQQSAPQYSVVLLEASDRLGGNITTQTAEGFVWELGPNSFAPTPALLQLIAEVGLQSELIRGDRHLPRYIYWRGQLYPLQPTRPLALATSNLLSPWGKVRAALGALGFVPPYLGSGDESVNSFFRRHLGQEVAERLVAPFVSGCYAGDPQQLSAAAAFRRIAQLEKLGGGLIAGALHLRRQQAPKPKPPTSVQMRPGELGSFKEGLAALPRAIAQQLKAPIHLQTPVQEITPDPKGGYLLRSGEQTWRARSVVLATPAYQTAELVAPFQPAIARVLATIPYPTVACVVLAYPAGLGRSVRPGFGVLIPRSQGIRTLGTIWSSCLFPQRTPAGWQVFTSTIGGATDPDLASLSEEAIVQQVQQDLNRLLDLPAAKARLLGMKVWRRAWPQYMVGYPEQWQQVTHALSQTPGLFLCSNYAEGVALGDRVEHGNRTAAAVAAYLSGGQP | + (‘+’ per each 10-fold resistance) | ++++ (‘+’ per each 10-fold resistance) | + (‘+’ per each 10-fold resistance) | ++ (‘+’ per each 10-fold resistance) | ++++ (‘+’ per each 10-fold resistance) | +++ (‘+’ per each 10-fold resistance) | ++++ (‘+’ per each 10-fold resistance)
CyPPO19 V165C + I408W + F360V: variant of CyPPO19 PPO protein (SEQ ID NO: 1) (protein, Synthetic_PPO of Thermosynechococcus elongatus PKUAC-SCTE542 (comprising GenBank No. CP032152.1)) MSEVDVAIVGGGLSGLSLAWRLQQSAPQYSVVLLEASDRLGGNITTQTAEGFVWELGPNSFAPTPALLQLIAEVGLQSELIRGDRHLPRYIYWRGQLYPLQPTRPLALATSNLLSPWGKVRAALGALGFVPPYLGSGDESVNSFFRRHLGQEVAERLVAPFVSGCYAGDPQQLSAAAAFRRIAQLEKLGGGLIAGALHLRRQQAPKPKPPTSVQMRPGELGSFKEGLAALPRAIAQQLKAPIHLQTPVQEITPDPKGGYLLRSGEQTWRARSVVLATPAYQTAELVAPFQPAIARVLATIPYPTVACVVLAYPAGLGRSVRPGFGVLIPRSQGIRTLGTIWSSCLFPQRTPAGWQVFTSVIGGATDPDLASLSEEAIVQQVQQDLNRLLDLPAAKARLLGMKVWRRAWPQYMVGYPEQWQQVTHALSQTPGLFLCSNYAEGVALGDRVEHGNRTAAAVAAYLSGGQP | + (‘+’ per each 10-fold resistance) | ++++ (‘+’ per each 10-fold resistance) | +++ (‘+’ per each 10-fold resistance) | ++++ (‘+’ per each 10-fold resistance) | ++++ (‘+’ per each 10-fold resistance) | +++ (‘+’ per each 10-fold resistance) | ++++ (‘+’ per each 10-fold resistance)
CyPPO19 V165S + L327T + F360T: variant of CyPPO19 PPO protein (SEQ ID NO: 1) (protein, Synthetic_PPO of Thermosynechococcus elongatus PKUAC-SCTE542 (comprising GenBank No. CP032152.1)) MSEVDVAIVGGGLSGLSLAWRLQQSAPQYSVVLLEASDRLGGNITTQTAEGFVWELGPNSFAPTPALLQLIAEVGLQSELIRGDRHLPRYIYWRGQLYPLQPTRPLALATSNLLSPWGKVRAALGALGFVPPYLGSGDESVNSFFRRHLGQEVAERLVAPFVSGSYAGDPQQLSAAAAFRRIAQLEKLGGGLIAGALHLRRQQAPKPKPPTSVQMRPGELGSFKEGLAALPRAIAQQLKAPIHLQTPVQEITPDPKGGYLLRSGEQTWRARSVVLATPAYQTAELVAPFQPAIARVLATIPYPTVACVVLAYPAGLGRSVRPGFGVTIPRSQGIRTLGTIWSSCLFPQRTPAGWQVFTSTIGGATDPDLASLSEEAIVQQVQQDLNRLLDLPAAKARLLGMKVWRRAIPQYMVGYPEQWQQVTHALSQTPGLFLCSNYAEGVALGDRVEHGNRTAAAVAAYLSGGQP | + (‘+’ per each 10-fold resistance) | +++++ (until ‘+++++’ as maximal resistance) | +++ (‘+’ per each 10-fold resistance) | ++ (‘+’ per each 10-fold resistance) | ++++ (‘+’ per each 10-fold resistance) | +++ (‘+’ per each 10-fold resistance) | ++++ (‘+’ per each 10-fold resistance)
CyPPO19 A167C + V305L + F360V: variant of CyPPO19 PPO protein (SEQ ID NO: 1) (protein, Synthetic_PPO of Thermosynechococcus elongatus PKUAC-SCTE542 (comprising GenBank No. CP032152.1)) MSEVDVAIVGGGLSGLSLAWRLQQSAPQYSVVLLEASDRLGGNITTQTAEGFVWELGPNSFAPTPALLQLIAEVGLQSELIRGDRHLPRYIYWRGQLYPLQPTRPLALATSNLLSPWGKVRAALGALGFVPPYLGSGDESVNSFFRRHLGQEVAERLVAPFVSGVYCGDPQQLSAAAAFRRIAQLEKLGGGLIAGALHLRRQQAPKPKPPTSVQMRPGELGSFKEGLAALPRAIAQQLKAPIHLQTPVQEITPDPKGGYLLRSGEQTWRARSVVLATPAYQTAELVAPFQPAIARVLATIPYPTLACVVLAYPAGLGRSVRPGFGVLIPRSQGIRTLGTIWSSCLFPQRTPAGWQVFTSVIGGATDPDLASLSEEAIVQQVQQDLNRLLDLPAAKARLLGMKVWRRAIPQYMVGYPEQWQQVTHALSQTPGLFLCSNYAEGVALGDRVEHGNRTAAAVAAYLSGGQP | + (‘+’ per each 10-fold resistance) | +++++ (until ‘+++++’ as maximal resistance) | + (‘+’ per each 10-fold resistance) | ++ (‘+’ per each 10-fold resistance) | +++++ (until ‘+++++’ as maximal resistance) | + (‘+’ per each 10-fold resistance) | ++++ (‘+’ per each 10-fold resistance)
CyPPO19 A167I + V305M + F360L: variant of CyPPO19 PPO protein (SEQ ID NO: 1) (protein, Synthetic_PPO of Thermosynechococcus elongatus PKUAC-SCTE542 (comprising GenBank No. CP032152.1)) MSEVDVAIVGGGLSGLSLAWRLQQSAPQYSVVLLEASDRLGGNITTQTAEGFVWELGPNSFAPTPALLQLIAEVGLQSELIRGDRHLPRYIYWRGQLYPLQPTRPLALATSNLLSPWGKVRAALGALGFVPPYLGSGDESVNSFFRRHLGQEVAERLVAPFVSGVYIGDPQQLSAAAAFRRIAQLEKLGGGLIAGALHLRRQQAPKPKPPTSVQMRPGELGSFKEGLAALPRAIAQQLKAPIHLQTPVQEITPDPKGGYLLRSGEQTWRARSVVLATPAYQTAELVAPFQPAIARVLATIPYPTMACVVLAYPAGLGRSVRPGFGVLIPRSQGIRTLGTIWSSCLFPQRTPAGWQVFTSLIGGATDPDLASLSEEAIVQQVQQDLNRLLDLPAAKARLLGMKVWRRAIPQYMVGYPEQWQQVTHALSQTPGLFLCSNYAEGVALGDRVEHGNRTAAAVAAYLSGGQP | + (‘+’ per each 10-fold resistance) | +++++ (until ‘+++++’ as maximal resistance) | +++ (‘+’ per each 10-fold resistance) | +++ (‘+’ per each 10-fold resistance) | +++++ (until ‘+++++’ as maximal resistance) | +++++ (until ‘+++++’ as maximal resistance) | +++++ (until ‘+++++’ as maximal resistance)

Source: patent publication US12698507B2, “Methods and compositions for conferring and/or enhancing herbicide tolerance using protoporphyrinogen IX oxidase of various cyanobacteria or variant thereof” (FarmHannong Co., Ltd., priority 2019, dated 2026)
